Measurements: the Immune Epitope Database (IEDB)

Assays:
HLA-B*15:17 = assay: IEDB peptide-MHC binding, purified MHC/direct/fluorescence; filed as Kd, often an IC50 or EC50 that approximates it; ≥ and ≤ were set here for values at or beyond the usual limits of such assays; conditions: source organism: Cryptosporidium parvum Iowa II
HLA-A*29:02 = assay: as above
HLA-A*02:01 [1] = assay: as above
HLA-B*27:03 = assay: as above
HLA-A*02:11 = assay: as above
HLA-A*02:16 = assay: as above
HLA-A*69:01 = assay: as above
HLA-B*57:01 = assay: as above
HLA-A*03:01 = assay: as above
HLA-B*18:01 = assay: as above
HLA-A*02:03 [2] = assay: as above
HLA-A*26:01 [3] = assay: as above
HLA-B*51:01 = assay: as above
HLA-A*02:19 = assay: as above
HLA-B*46:01 = assay: as above
HLA-A*24:03 = assay: as above
HLA-A*68:02 [4] = assay: as above; conditions: source organism: Cryptosporidium parvum Iowa II
HLA-B*15:01 = assay: as above
HLA-A*02:12 = assay: as above
HLA-A*26:02 = assay: IEDB peptide-MHC binding, purified MHC/competitive/fluorescence; filed as Kd, often an IC50 or EC50 that approximates it; ≥ and ≤ were set here for values at or beyond the usual limits of such assays; conditions: source organism: Human immunodeficiency virus 1
HLA-A*30:01 = assay: as above; conditions: source organism: Human immunodeficiency virus 1
HLA-A*02:01 [5] = assay: as above; conditions: source organism: Human immunodeficiency virus 1
HLA-B*07:02 [6] = assay: as above; conditions: source organism: Human immunodeficiency virus 1
HLA-B*15:09 = assay: as above; conditions: source organism: Human immunodeficiency virus 1
HLA-A*02:03 [7] = assay: as above; conditions: source organism: Human immunodeficiency virus 1
HLA-A*26:01 [8] = assay: as above; conditions: source organism: Human immunodeficiency virus 1
HLA-B*08:01 = assay: as above; conditions: source organism: Human immunodeficiency virus 1
HLA-A*02:06 = assay: as above; conditions: source organism: Human immunodeficiency virus 1
HLA-A*68:02 [9] = assay: as above; conditions: source organism: Human immunodeficiency virus 1
HLA-B*39:01 = assay: IEDB peptide-MHC binding, purified MHC/direct/fluorescence; filed as Kd, often an IC50 or EC50 that approximates it; ≥ and ≤ were set here for values at or beyond the usual limits of such assays
HLA-C*06:02 = assay: as above
HLA-C*15:02 = assay: as above; conditions: source organism: Human immunodeficiency virus 1
HLA-C*14:02 = assay: as above; conditions: source organism: Human immunodeficiency virus 1
HLA-B*35:01 = assay: as above; conditions: source organism: Mycobacterium tuberculosis str. Haarlem
HLA-B*07:02 [10] = assay: as above; conditions: source organism: Mycobacterium tuberculosis str. Haarlem
HLA-B*83:01 = assay: IEDB peptide-MHC binding, purified MHC/competitive/fluorescence; filed as Kd, often an IC50 or EC50 that approximates it; ≥ and ≤ were set here for values at or beyond the usual limits of such assays; conditions: source organism: Homo sapiens
HLA-B*15:42 = assay: as above; conditions: source organism: Homo sapiens
HLA-B*45:06 = assay: as above; conditions: source organism: Homo sapiens
HLA-B*73:01 = assay: IEDB peptide-MHC binding, purified MHC/direct/fluorescence; filed as Kd, often an IC50 or EC50 that approximates it; ≥ and ≤ were set here for values at or beyond the usual limits of such assays
HLA-B*27:05 = assay: as above; conditions: source organism: Yersinia enterocolitica
HLA-B*48:01 = assay: as above; conditions: source organism: Yersinia enterocolitica
[11] = source organism: Cryptosporidium parvum Iowa II
[12] = source organism: Mycobacterium tuberculosis str. Haarlem

DHIPIINTL
Kd (HLA-B*15:17): ≥ 20 µM | Kd (HLA-A*29:02; [11]): ≥ 20 µM | Kd (HLA-A*02:01 [1]; [11]): ≥ 20 µM | Kd (HLA-B*27:03; [11]): ≥ 20 µM | Kd (HLA-A*02:11; [11]): ≥ 20 µM | Kd (HLA-A*02:16; [11]): ≥ 20 µM | Kd (HLA-A*69:01; [11]): ≥ 20 µM | Kd (HLA-B*57:01; [11]): ≥ 20 µM | Kd (HLA-A*03:01; [11]): ≥ 20 µM | Kd (HLA-B*18:01; [11]): ≥ 20 µM | Kd (HLA-A*02:03 [2]; [11]): ≥ 20 µM | Kd (HLA-A*26:01 [3]; [11]): ≥ 20 µM | Kd (HLA-B*51:01; [11]): ≥ 20 µM | Kd (HLA-A*02:19; [11]): ≥ 20 µM | Kd (HLA-B*46:01; [11]): ≥ 20 µM | Kd (HLA-A*24:03; [11]): ≥ 20 µM | Kd (HLA-A*68:02 [4]): ≥ 20 µM | Kd (HLA-B*15:01; [11]): ≥ 20 µM | Kd (HLA-A*02:12; [11]): ≥ 20 µM

EIKSLFNTI
Kd (HLA-A*26:02): ≥ 20 µM | Kd (HLA-A*30:01): ≥ 20 µM | Kd (HLA-A*02:01 [5]): ≥ 20 µM | Kd (HLA-B*07:02 [6]): 6 µM | Kd (HLA-B*15:09): ≥ 20 µM | Kd (HLA-A*02:03 [7]): ≥ 20 µM | Kd (HLA-A*26:01 [8]): ≥ 20 µM | Kd (HLA-B*08:01): 1.62 µM | Kd (HLA-A*02:06): 0.0617 µM | Kd (HLA-A*68:02 [9]): 0.036 µM

ILTRLALFF
Kd (HLA-B*15:17): ≥ 20 µM | Kd (HLA-B*39:01; [11]): ≥ 20 µM | Kd (HLA-B*27:03; [11]): ≥ 20 µM | Kd (HLA-A*02:11; [11]): ≥ 20 µM | Kd (HLA-A*02:16; [11]): ≥ 20 µM | Kd (HLA-A*69:01; [11]): ≥ 20 µM | Kd (HLA-B*57:01; [11]): ≥ 20 µM | Kd (HLA-A*03:01; [11]): ≥ 20 µM | Kd (HLA-B*18:01; [11]): ≥ 20 µM | Kd (HLA-A*02:03 [2]; [11]): ≥ 20 µM | Kd (HLA-A*26:01 [3]; [11]): ≥ 20 µM | Kd (HLA-B*51:01; [11]): ≥ 20 µM | Kd (HLA-A*02:19; [11]): ≥ 20 µM | Kd (HLA-B*46:01; [11]): ≥ 20 µM | Kd (HLA-A*24:03; [11]): ≥ 20 µM | Kd (HLA-A*68:02 [4]): ≥ 20 µM | Kd (HLA-B*15:01; [11]): ≥ 20 µM | Kd (HLA-A*02:12; [11]): ≥ 20 µM

RMYSPVSIL
Kd (HLA-C*06:02; source organism: Human immunodeficiency virus 1): 3.11 µM | Kd (HLA-C*15:02): 0.686 µM | Kd (HLA-C*14:02): 0.701 µM

WASGVPAAT
Kd (HLA-B*35:01): 0.317 µM | Kd (HLA-B*39:01; [12]): ≥ 20 µM | Kd (HLA-A*29:02; [12]): ≥ 20 µM | Kd (HLA-A*02:01 [1]; [12]): ≥ 20 µM | Kd (HLA-B*27:03; [12]): ≥ 20 µM | Kd (HLA-A*02:11; [12]): ≥ 20 µM | Kd (HLA-A*02:16; [12]): ≥ 20 µM | Kd (HLA-B*07:02 [10]): 6.5 µM | Kd (HLA-B*57:01; [12]): ≥ 20 µM | Kd (HLA-A*03:01; [12]): ≥ 20 µM | Kd (HLA-B*18:01; [12]): ≥ 20 µM | Kd (HLA-A*02:03 [2]; [12]): ≥ 20 µM | Kd (HLA-A*26:01 [3]; [12]): ≥ 20 µM | Kd (HLA-B*51:01; [12]): ≥ 20 µM | Kd (HLA-A*02:19; [12]): ≥ 20 µM | Kd (HLA-B*46:01; [12]): ≥ 20 µM | Kd (HLA-A*24:03; [12]): ≥ 20 µM | Kd (HLA-B*15:01; [12]): ≥ 20 µM | Kd (HLA-A*02:12; [12]): ≥ 20 µM

YEHYFVFAA
Kd (HLA-B*83:01): ≥ 5 µM | Kd (HLA-B*15:42): ≥ 5 µM | Kd (HLA-B*45:06): 0.379 µM | Kd (HLA-B*73:01; source organism: Homo sapiens): 0.0226 µM

YLYDETQDV
Kd (HLA-C*06:02; source organism: Mycobacterium tuberculosis variant bovis BCG str. Pasteur 1173P2): 0.041 µM | Kd (HLA-A*69:01; source organism: Mycobacterium tuberculosis): 1.24 µM | Kd (HLA-A*02:03 [2]; [12]): 0.002 µM | Kd (HLA-A*02:12; [12]): 0.006 µM

YRLVSAVEK
Kd (HLA-B*27:05): 0.0299 µM | Kd (HLA-B*48:01): ≥ 20 µM | Kd (HLA-B*73:01; source organism: Yersinia enterocolitica): ≥ 20 µM
